Results reported in the RNAGym collection of RNA variant scans (doi:10.1093/molbev/msab373).

B1: Azoarcus group I ribozyme (parent)
chain: GUGCCUUGCGCCGGGAAACCACGCAAGGGAUGGUGUCAAAUUCGGCGAAACCUAAGCGCCCGCCCGGGCGUAUGGCAACGCCGAGCCAAGCUUCGGCGCCUGCGCCGAUGAAGGUGUAGAGACUAGACGGCACCCACCUAAGGCAAACGCUAUGGUGAAGGCAUAGUCCAGGGAGUGGCGAAAGUCACACAAACCGG

Variants of: B1
Assay: reverse-splicing fitness (ratio to wild type); higher = more active; in vitro selection; Mg2+ level not given
How it was run: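 An in vitro group I ribozyme library with randomized positions was T7-transcribed and gel-purified. In triplicate, 10 pmol RNA in EPPS pH 7.5 was reacted with 50 pmoles of a 30-nt RNA substrate for 1 h at 37 °C across several added MgCl2 levels (1–48 mM), then stopped with EDTA. Products were reverse transcribed from a substrate-complementary primer, PCR-amplified and sequenced (HiSeq 4000). Fitness is a variant's read proportion after selection over that before, normalised to wild type.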

Variant	reverse-splicing fitness
GUGCCUUGCGCCGGGAAACCACGCAAGGGAUGGUGUCAAAUUCGGCGAAACCUAAGCGCCCGCCCGGGCGUAUGGCAACGCUGAGCCAAGCUUCGGCGCCUGCGCCGAUGAAGGUGUAGCGACUAGACGGCACCCACCUAAGGCAAACGUUAUGGUGAAGGCAUAGUCCAGGGAGCGGCGAAAGUCACACAAACCGG [C82U A120C C150U U176C]	0.0444
GUGCCUUGCGCCGGGAAACCACGCAAGGGAUGGUGUCAAAUUCGGCGAAACCUAAGCGCCCGCCCGGGCGUAUGGCAACGCUGAGCCAAGCUUCGGCGCCUGCGCCGAUGAAGGUGUAGCGACUAGACGGCACCCACCUAAGGCAAACGUUAUGGUGAAGGCAUAGUCUAGGGAGUGGCGAAAGUCACACAAACCGG [C82U A120C C150U C169U]	0.0165
GUGCCUUGCGCCGGGAAACCACGCAAGGGAUGGUGUCAAAUUCGGCGAAACCUAAGCGCCCGCCCGGGCGUAUGGCAACGCUGAGCCAAGCUUCGGCGCCUGCGCCGAUGAAGGUGUAGCGACUAGACGGCACCCACCUAAGGCAAACGCUAUGGUGAAGGCAUAGUCUAGGGAGGGGCGAAAGUCACACAAACCGG [C82U A120C C169U U176G]	0.00414
GUGCCUUGCGCCGGGAAACCACGCAAGGGAUGGUGUCAAAUUCGGCGAAACCUAAGCGCCCGCCCGGGCGUAUGGCAACGCUGAGCCAAGCUUCGGCGCCUGCGCCGAUGAAGGUGUAGCGACUAGACGGCACCCACCUAAGGCAAACGCUAUGGUGAAGGCAUAGUCUAGGGAGAGGCGAAAGUCACACAAACCGG [C82U A120C C169U U176A]	0.0188
GUGCCUUGCGCCGGGAAACCACGCAAGGGAUGGUGUCAAAUUCGGCGAAACCUAAGCGCCCGCCCGGGCGUAUGGCAACGCUGAGCCAAGCUUCGGCGCCUGCGCCGAUGAAGGUGUAGCGACUAGACGGCACCCACCUAAGGCAAACGCUAUGGUGAAGGCAUAGUCUAGGGAGCGGCGAAAGUCACACAAACCGG [C82U A120C C169U U176C]	0.0166
GUGCCUUGCGCCGGGAAACCACGCAAGGGAUGGUGUCAAAUUCGGCGAAACCUAAGCGCCCGCCCGGGCGUAUGGCAACGCUGAGCCAAGCUUCGGCGCCUGCGCCGAUGAAGGUGUAGGGACUAGACGGCACCCACCUAAGGCAAACGCUAUGGUGAAGGCAUAGUCCAGGGAGUGGCGAAAGUCACACAAACCGG [C82U A120G]	0.0259
GUGCCUUGCGCCGGGAAACCACGCAAGGGAUGGUGUCAAAUUCGGCGAAACCUAAGCGCCCGCCCGGGCGUAUGGCAACGCUGAGCCAAGCUUCGGCGCCUGCGCCGAUGAAGGUGUAGCGACUAGACGGCACCCACCUAAGGCAAACGCUAUGGUGAAGGCAUAGUCGAGGGAGCGGCGAAAGUCACACAAACCGG [C82U A120C C169G U176C]	0.0125
GUGCCUUGCGCCGGGAAACCACGCAAGGGAUGGUGUCAAAUUCGGCGAAACCUAAGCGCCCGCCCGGGCGUAUGGCAACGCUGAGCCAAGCUUCGGCGCCUGCGCCGAUGAAGGUGUAGCGACUAGACGGCACCCACCUAAGGCAAACGCUAUGGUGAAGGCAUAGUCGAGGGAGAGGCGAAAGUCACACAAACCGG [C82U A120C C169G U176A]	0.0123
GUGCCUUGCGCCGGGAAACCACGCAAGGGAUGGUGUCAAAUUCGGCGAAACCUAAGCGCCCGCCCGGGCGUAUGGCAACGCUGAGCCAAGCUUCGGCGCCUGCGCCGAUGAAGGUGUAGCGACUAGACGGCACCCACCUAAGGCAAACGCUAUGGUGAAGGCAUAGUCGAGGGAGGGGCGAAAGUCACACAAACCGG [C82U A120C C169G U176G]	0.00419
GUGCCUUGCGCCGGGAAACCACGCAAGGGAUGGUGUCAAAUUCGGCGAAACCUAAGCGCCCGCCCGGGCGUAUGGCAACGCUGAGCCAAGCUUCGGCGCCUGCGCCGAUGAAGGUGUAGCGACUAGACGGCACCCACCUAAGGCAAACGUUAUGGUGAAGGCAUAGUCUAGGGAGCGGCGAAAGUCACACAAACCGG [C82U A120C C150U C169U U176C]	0.0177
GUGCCUUGCGCCGGGAAACCACGCAAGGGAUGGUGUCAAAUUCGGCGAAACCUAAGCGCCCGCCCGGGCGUAUGGCAACGCUGAGCCAAGCUUCGGCGCCUGCGCCGAUGAAGGUGUAGCGACUAGACGGCACCCACCUAAGGCAAACGUUAUGGUGAAGGCAUAGUCUAGGGAGGGGCGAAAGUCACACAAACCGG [C82U A120C C150U C169U U176G]	0.00448
GUGCCUUGCGCCGGGAAACCACGCAAGGGAUGGUGUCAAAUUCGGCGAAACCUAAGCGCCCGCCCGGGCGUAUGGCAACGCUGAGCCAAGCUUCGGCGCCUGCGCCGAUGAAGGUGUAGCGACUAGACGGCACCCACCUAAGGCAAACGUUAUGGUGAAGGCAUAGUCUAGGGAGAGGCGAAAGUCACACAAACCGG [C82U A120C C150U C169U U176A]	0.0176
GUGCCUUGCGCCGGGAAACCACGCAAGGGAUGGUGUCAAAUUCGGCGAAACCUAAGCGCCCGCCCGGGCGUAUGGCAACGCUGAGCCAAGCUUCGGCGCCUGCGCCGAUGAAGGUGUAGCGACUAGACGGCACCCACCUAAGGCAAACGCUAUGGUGAAGGCAUAGUCCAGGGAGGGGCGAAAGUCACACAAACCGG [C82U A120C U176G]	0.00931
GUGCCUUGCGCCGGGAAACCACGCAAGGGAUGGUGUCAAAUUCGGCGAAACCUAAGCGCCCGCCCGGGCGUAUGGCAACGCUGAGCCAAGCUUCGGCGCCUGCGCCGAUGAAGGUGUAGCGACUAGACGGCACCCACCUAAGGCAAACGCUAUGGUGAAGGCAUAGUCCAGGGAGCGGCGAAAGUCACACAAACCGG [C82U A120C U176C]	0.0725
GUGCCUUGCGCCGGGAAACCACGCAAGGGAUGGUGUCAAAUUCGGCGAAACCUAAGCGCCCGCCCGGGCGUAUGGCAACGCUGAGCCAAGCUUCGGCGCCUGCGCCGAUGAAGGUGUAGCGACUAGACGGCACCCACCUAAGGCAAACGCUAUGGUGAAGGCAUAGUCCAGGGAGAGGCGAAAGUCACACAAACCGG [C82U A120C U176A]	0.048
